Laboratory results from US9314421B2, “Ultrasound-enhanced intrascleral delivery of macromolecules” (The Hong Kong University of Science and Technology, priority 2009, dated 2016).
Where “and” joins values, the source holds several entries; their conditions need not be identical. Equal entries are not always repeated.

Tests used:
[1] = with ultrasound; cited from earlier work
[2] = Calculation of intrascleral diffusivity from penetration distance versus square root of time; assay type: in vitro ADME, New Zealand White Rabbit; conditions: for intrascleral diffusivity: 37° C.
Procedure: The one-dimensional diffusion model describing the penetration distance (L), diffusivity (D) and time of diffusion (t) is given by the equation below (23): L=√{square root over (2Dt)}. (1)
A plot of the penetration distance versus the square root of time yields a straight line. The diffusivity is calculated from the slope, which equals […].
The diffusivity measured at room temperature is converted to the value at 37° C. according to Stokes-Einstein equation, which gives
[formula] where D and η are diffusivity and viscosity respectively, with the temperature designated at the subscript. Since the experiment was conducted in dilute buffer solution, the viscosity of water is used. Histological Study

[3] = assay type: in vitro ADME, New Zealand White Rabbit
Procedure: The eyes of New Zealand White Rabbits (6-month to one-year-old) were enucleated immediately after the rabbits were sacrificed. The eyes were kept on ice prior to experiments and the time lag never exceeded 15 minutes to ensure tissue freshness. All the periocular tissues (muscles and conjunctiva) were removed and the optic nerve was sealed with Vaseline®. The eye was immersed in a container filled with 4 ml of 0.1% FITC-BSA or BBS+®. An ultrasound transducer with a probe size of 1 cm^2 (BTL-4000, BTL Industries, Inc., Clark, N.J.) was positioned a few millimeters above the sclera near the equator. The zone of ultrasound application was labeled with a marker. Ultrasound at a therapeutic frequency (1 MHz) and a low power input (0.5 W/cm^2) was applied for 30 seconds. The eye continued to be immersed in 0.1% FITC-BSA or BBS+® for different time intervals (5, 15, 30 and 60 minutes for 0.1% FITC-BSA; 15 minutes for BSS+®). All of the experiments were carried out at room temperature. The scleral surface temperature at the ultrasound application zone before and after treatment was measured using a thermocouple. Controls were performed by immersing the eyes for different time intervals without ultrasound application.
Immediately after the ex vivo experiments, the whole eye was washed and immersed in a mould filled with optimum cutting temperature medium (O.C.T) (Leica, Wetzlar, Germany), followed by quick-freezing in liquid nitrogen. 10 μm thick sections across the marked ultrasound application zone of the eye were cut using a cryostat (CM1850, Leica, Wetzlar, Germany). Polylysine-coated slides were used for collecting the tissue sections.
All images were acquired using a fluorescence microscope (BX 41, Olympus, Center Valley, Pa.). The image of the sclera was captured under optical mode, and FITC-BSA penetration into the sclera was captured under fluorescence mode (bandpass filter: 510-550 nm, dichroic mirror: 570 nm, barrier filter: 590 nm, exposure time: […]). The pictures shown in the FIGS. 15-17 were merged images of these two modes. The thickness of the sclera and the penetration distance of FITC-BSA were obtained using the software SPOT® (Diagnostic Instruments, Inc., MI, USA). For each experiment or control, 2 to 4 eyes from different rabbits were used. Three tissue sections were obtained from each eye and at least 20 measurements on the penetration distance were made in each eye. Only images showing intact sclera were used for measurement to avoid ambiguity.
In the first set of experiments, the parameters of the ultrasound used were set as follows: frequency: 1 MHz, power: 0.5 W/cm^2, application duration: 30 seconds, size of transducer: 1 cm^2. Freshly enucleated New Zealand White Rabbit eyes were used as an ex vivo eye model, and 65 kDa protein fluorescent albumin was used as the model macromolecule. Whole rabbit eyes were immersed in fluorescent albumin solution. Ultrasound was applied for 30 s and then the eyes were kept in fluorescent albumin for 5, 15 or 30 minutes. For the control experiment, the eyes were immersed in fluorescent albumin for 15 minutes without ultrasound application. The eyes were then flash frozen in OCT (Optimum Cutting Temperature) medium with liquid nitrogen and sectioned in cryostat for further investigation.
Briefly, the parameters of the ultrasound were set as follows: frequency: 1 MHz, power: 0.5 W/cm^2, application duration: 30 seconds, size of transducer: 1 cm^2. […]

Row | Molecule | enhancement of delivery through the cornea versus passive diffusion [1] | increase in ocular diffusivity ([2]; 0.5 W/cm^2, 1 MHz ultrasound for 30 seconds) | intrascleral diffusivity ([2]; control without ultrasound) | intrascleral diffusivity ([2]; with ultrasound, first 15 min) | intrascleral diffusivity ([2]; with ultrasound, from 15 to 60 min) | increase in diffusivity by ultrasound treatment ([2]; first 15 minutes, ultrasound versus no ultrasound) | depth of intrascleral site reached [3] | increase in percentage of depth of protein penetration versus control [3] | level of penetration (qualitative) [3] | penetration depth [3] | penetration versus sample without 15-minute BSS+ pretreatment [3]
1 | O=C([O-])c1ccccc1-c1c2ccc(=O)cc-2oc2cc([O-])ccc12.[Na+].[Na+] [sodium fluorescein] | ten times |  |  |  |  |  |  |  |  |  | 
2 | FITC-BSA: 65 kDa protein fluorescent albumin used as the model macromolecule |  | 2 folds | 3.90×10^−08 cm^2/sec | 6.17×10^−8 cm^2/sec and 6.17×10^−08 cm^2/sec | 4.18×10^−8 cm^2/sec | 1.6 times | about 110 μm | 4 folds | failed to penetrate into the sclera | 15.8±5.7 μm | much lower
